Data as given in PMC7337906.

Molecular target: T1, Tof1(613-728) minimal;Csm3(48-157) internal_change (Chaetomium thermophilum;Chaetomium thermophilum) (UniProt G0S825+Q2H3R6)
T1 sequence 1: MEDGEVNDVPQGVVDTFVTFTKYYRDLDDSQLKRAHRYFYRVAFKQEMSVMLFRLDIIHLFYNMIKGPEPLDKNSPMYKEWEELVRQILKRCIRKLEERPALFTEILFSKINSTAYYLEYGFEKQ
T1 sequence 2: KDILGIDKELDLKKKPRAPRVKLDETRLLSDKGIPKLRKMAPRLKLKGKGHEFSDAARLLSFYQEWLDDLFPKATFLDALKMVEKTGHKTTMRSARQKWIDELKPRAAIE
Assay: EMSA
Conditions: HBS-200 (20 mM HEPES pH 7.5, 200 mM NaCl, 1 mM TCEP) + 10% glycerol, 50 nM DNA, 30 min on ice; 6% polyacrylamide tris-glycine gel

Q: With “GTAGTTTGTACTGGTGACGA (double strand) [dsDNA 20 bp]” as the sequence, how does the binding signal (fold weaker than P1+P2) read?
A: 2
